From patent US20060177432A1

What was measured:
Experiment in all cases: cell-based or functional assay
chymotrypsin = biological target: chymotrypsin
human α-thrombin (human) = human α-thrombin (human) (UniProt P00734)
neuropsin = biological target: neuropsin

6xHis-PEBP (recombinant mouse PEBP with a 6xHis-tag at the N-terminus) (from UniProt P70296 2-187)
inhibition of amidolytic activity (chromogenic substrate, 405 nm) (chymotrypsin): 25% | inhibition of amidolytic activity (chromogenic substrate, 405 nm) (human α-thrombin (human)): 55% | inhibition of amidolytic activity (chromogenic substrate, 405 nm) (neuropsin): 70%
